Measurements: article PMC4837377 (Scientific Reports, 2016)

B1: PA-PB1-PB2(1-116) truncated heterotrimer (construct 15) (complex)
chain 1: […]
chain 2: MDVNPTLLFLKVPAQNAISTTFPYTGDPPYSHGTGTGYTMDTVNRTHQYSEKGKWTTNTETGAAQLNPIDGPLPEDNEPSGYAQTDCVLEAMAFLEESHPGIFENSCLETMEVVQQTRVDRLTQGRQTYDWTLNRNQPAATALANTIEVFRSNGLIANESGRLIDFLKDVIESMDKEEMEITTHFQRKRRVRDNMTKKMVTQRTIGKKKQRVNKRSYLIRALTLNTMTKDAERGKLKRRAIATPGMQIRGFVYFVETLARSICEKLEQSGLPVGGNEKKAKLANVVRKMMTNSQDTELSFTITGDNTKWNENQNPRMFLAMITYITKNQPEWFRNILSIAPIMFSNKMARLGKGYMFESKRMKLRTQIPAEMLASIDLKYFNESTRKKIEKIRPLLIDGTASLSPGMMMGMFNMLSTVLGVSILNLGQKKYTKTTYWWDGLQSSDDFALIVNAPNHEGIQAGVDRFYRTCKLVGINMSKKKSYINRTGTFEFTSFFYRYGFVANFSMELPSFGVSGINESADMSIGVTVIKNNMINNDLGPATAQMALQLFIKDYRYTYRCHRGDTQIQTRRSFELKKLWEQTRSKAGLLVSDGGPNLYNIRNLHIPEVCLKWELMDEDYQGRLCNPLNPFVSHKEIESVNNAVVMPAHGPAKSMEYDAVATTHSWIPKRNRSILNTSQRGILEDEQMYQKCCNLFEKFFPSSSYRRPVGISSMVEAMVSRARIDARIDFESGRIKKEEFSEIMKICSTIEELRRQK
chain 3: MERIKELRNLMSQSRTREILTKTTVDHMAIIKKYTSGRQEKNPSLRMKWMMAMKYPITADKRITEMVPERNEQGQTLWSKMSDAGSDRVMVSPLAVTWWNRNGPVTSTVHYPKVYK
notes: copies: + +
B2: PA-PB1-PB2(1-250) truncated heterotrimer (construct 16) (complex)
chain 1: […]
chain 2: B1 chain 2
chain 3: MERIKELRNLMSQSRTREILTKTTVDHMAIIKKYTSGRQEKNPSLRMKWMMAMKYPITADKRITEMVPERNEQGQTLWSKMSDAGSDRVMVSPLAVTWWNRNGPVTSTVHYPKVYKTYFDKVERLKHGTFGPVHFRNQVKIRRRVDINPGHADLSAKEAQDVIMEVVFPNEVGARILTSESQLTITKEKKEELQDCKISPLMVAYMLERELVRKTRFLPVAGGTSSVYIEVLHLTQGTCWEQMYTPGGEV
notes: copies: + +

Biological target: the molecule itself
Assay: SEC-MALS

Row | Protein | stoichiometry N
1 | B1 | 2
2 | B2 | 2
